This is an account of results in patent US20230406935A1 (F STAR THERAPEUTICS, published 2023).

For data set [1], the target named is T1, Human CD80 expressed on HEK 293 cells (human, UniProt P33681 35-288).
T1 construct: also called hCD80
T1 sequence: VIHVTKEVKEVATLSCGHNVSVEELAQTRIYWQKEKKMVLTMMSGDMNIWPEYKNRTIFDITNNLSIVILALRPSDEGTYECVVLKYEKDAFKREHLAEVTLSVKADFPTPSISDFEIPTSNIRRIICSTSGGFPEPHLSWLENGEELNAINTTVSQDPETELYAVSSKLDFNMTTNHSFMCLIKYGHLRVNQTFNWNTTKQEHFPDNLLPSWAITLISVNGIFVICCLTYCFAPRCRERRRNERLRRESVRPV
Description: flow cytometry on HEK 293 cells. On the technique in general: In flow cytometry, cells or beads pass a laser one at a time.

In data set [2] the target is Mouse PD-L1 expressed on HEK 293 cells (mouse, UniProt Q9EP73 19-290). In words: flow cytometry on HEK 293 cells.
Mouse PD-L1 expressed on HEK 293 cells, sequence (Q9EP73 19-290 limits assumed): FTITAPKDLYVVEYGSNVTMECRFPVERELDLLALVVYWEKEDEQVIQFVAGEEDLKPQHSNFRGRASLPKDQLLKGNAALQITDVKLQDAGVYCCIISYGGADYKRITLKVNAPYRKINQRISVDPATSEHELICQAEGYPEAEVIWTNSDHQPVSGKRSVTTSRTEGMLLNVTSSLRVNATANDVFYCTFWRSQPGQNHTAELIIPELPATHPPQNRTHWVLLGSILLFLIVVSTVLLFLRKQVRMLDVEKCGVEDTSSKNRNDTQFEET
The target in data set [3] is T2, Human PD-1 expressed on HEK 293 cells (human, UniProt Q15116 25-288).
T2 construct: also called hPD-1
T2 sequence (Q15116 25-288 limits assumed): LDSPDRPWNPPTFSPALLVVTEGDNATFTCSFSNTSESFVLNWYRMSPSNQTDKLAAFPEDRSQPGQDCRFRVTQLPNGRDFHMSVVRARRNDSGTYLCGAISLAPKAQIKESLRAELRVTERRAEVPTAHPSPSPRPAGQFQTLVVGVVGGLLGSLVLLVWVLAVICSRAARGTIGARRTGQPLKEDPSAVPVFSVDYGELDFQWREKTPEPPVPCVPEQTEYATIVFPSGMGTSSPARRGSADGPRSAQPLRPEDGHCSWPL
In words: flow cytometry on HEK 293 cells.

The target in data set [4] is T3, Mouse CD80 expressed on HEK 293 cells (mouse, UniProt Q00609 38-306).
T3 sequence: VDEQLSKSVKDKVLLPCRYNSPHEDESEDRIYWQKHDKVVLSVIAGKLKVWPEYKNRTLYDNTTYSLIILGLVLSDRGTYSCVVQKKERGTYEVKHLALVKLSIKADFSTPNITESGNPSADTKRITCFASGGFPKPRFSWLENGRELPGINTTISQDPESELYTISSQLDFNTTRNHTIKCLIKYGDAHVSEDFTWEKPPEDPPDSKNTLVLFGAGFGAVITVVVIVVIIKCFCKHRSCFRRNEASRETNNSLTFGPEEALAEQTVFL
Description: flow cytometry on HEK 293 cells.

The target of data set [5] is T4, Recombinant mouse PD-L1 with a C-terminal human IgG tag (R&D Systems, 1019-B7), biotinylated (mouse, UniProt Q9EP73 19-238).
T4 construct: also called mouse PD-L1 Fc
T4 sequence (Q9EP73 19-238 limits assumed): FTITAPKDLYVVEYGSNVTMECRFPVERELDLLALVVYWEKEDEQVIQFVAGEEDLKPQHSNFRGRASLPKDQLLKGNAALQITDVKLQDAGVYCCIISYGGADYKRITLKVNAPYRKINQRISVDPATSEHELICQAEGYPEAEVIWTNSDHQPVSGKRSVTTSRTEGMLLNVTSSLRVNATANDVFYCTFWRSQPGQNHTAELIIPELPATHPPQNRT
Description: SPR BIAcore 3000, mouse PD-L1 Fc on streptavidin chip. For orientation: SPR reads the build-up and loss of mass on a sensor chip optically.

Data set [6] addresses T5, Human PD-L1 expressed on cells (human, UniProt Q9NZQ7 19-290).
T5 construct: also called cell-surface human PD-L1; hPD-L1
In words: flow cytometry, HEK293 cells overexpressing the target, anti-human Fc 488. The protocol: (§1) Cell binding assays were performed by incubating Fcabs or mAb² proteins with either control HEK293 cells or HEK293 cells overexpressing hPD-L1 or cynomolgus PD-L1 cells for 1 hour at 4° C. Fcab/mAb binding was subsequently detected using an anti-human Fc 488 detection antibody. Fluorescent signal intensities were measured using a FACS canto.

Data set [7] addresses T6, Cynomolgus PD-L1 expressed on HEK 293 cells (cynomolgus, UniProt Q9NZQ7 19-290 (human entry)).
T6 construct: also called cell-expressed cynomolgus PD-L1
The data set is described as above. The protocol: as §1

The target of data set [8] is T7, Biotinylated hPD-L1-Fc-Avi (human, UniProt Q9NZQ7 19-238). In words: cell-based RBA, blocking of hPD-L1-Fc-Avi binding to HEK293 hPD-1 cells. The protocol: (§2) The ability of the Fcabs and mock mAb² to block hPD-1/hPD-L1 and hPD-L1/hCD80 interactions was tested in cell-based Receptor Binding Assays (RBA). […] The mix was incubated for another hour with HEK293 cells overexpressing either hPD-1 or hCD80.
T7 sequence (Q9NZQ7 19-238 limits assumed): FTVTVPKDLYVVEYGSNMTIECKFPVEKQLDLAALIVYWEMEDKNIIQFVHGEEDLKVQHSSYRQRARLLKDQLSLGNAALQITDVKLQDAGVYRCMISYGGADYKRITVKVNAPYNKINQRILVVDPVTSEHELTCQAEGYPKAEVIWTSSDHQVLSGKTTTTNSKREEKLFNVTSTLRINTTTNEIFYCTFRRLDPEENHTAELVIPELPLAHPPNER

Data set [9] concerns the target T8, PD-L2 (R&D systems 1224-PL) (UniProt Q9BQ51 20-219).
T8 sequence (looked up): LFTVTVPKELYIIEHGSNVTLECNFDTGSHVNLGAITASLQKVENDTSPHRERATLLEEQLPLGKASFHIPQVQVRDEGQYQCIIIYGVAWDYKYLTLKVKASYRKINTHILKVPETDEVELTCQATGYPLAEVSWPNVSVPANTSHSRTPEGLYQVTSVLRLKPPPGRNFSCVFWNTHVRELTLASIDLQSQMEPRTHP
Description: SPR Biacore, PD-L2 coated on the chip, Fcab in flow. The source says:
(§3) The Fcab was then flowed over the chip at a 1000-fold concentration range. […] However, the Fcab did bind to PD-L1.

Data set [10] addresses T9, Recombinant human PD-1 with a C-terminal human IgG tag (R&D Systems, 1086-PD) (human, UniProt Q15116 25-167).
T9 construct: also called human PD-1 Fc; biotinylated PD-1 Fc
Description: SPR Biacore, PD-1 coated on the chip, Fcab in flow.
From the text: as §3

For data set [11], the target named is T10, Monomeric His-tagged human PD-L1 (Acro biosystems PD1-H5229) (human, UniProt Q9NZQ7 19-238).
T10 construct: also called hPD-L1-his; PD-L1-his
T10 sequence (Q9NZQ7 19-238 limits assumed): as the sequence (Q9NZQ7 19-238 limits assumed) above
Description: SPR Biacore, captured on protein A, monomeric PD-L1-his in flow, 1:1 fit. As to the method:
The monomeric PD-L1-his human antigen was flowed over the chip in titrating concentrations at a high flow rate to minimise mass transport limitations. The KDS were measured using a 1:1 fitting analysis with no refractive index correction and Rₘₐₓ set to local.

For data set [12], the target named is T11, Monomeric cynomolgus PD-L1 (Acro Biosciences PD1-C52H4) (cynomolgus, UniProt Q9NZQ7 19-238 (human entry)).
T11 construct: also called cynomolgus monomeric PD-L1
T11 sequence (Q9NZQ7 other isoform, or with tags, fused parts or gaps limits assumed): as the sequence (Q9NZQ7 19-238 limits assumed) above, with A33T, A34S, S62N, R68Q, Q82R, F173L, T185A, T192I, H215L counted along it
In words: SPR Biacore T200, Fcab captured on protein A chip, monomeric antigen in flow, 1:1 fit.

In data set [13] the target is T10, Monomeric His-tagged human PD-L1 (Acro …). Described as above.
Data set [14] deals with the molecule itself. In words: analytical ultracentrifugation, self-association of the Fcab (monomer and dimer peaks). The protocol: To address this, the molecules were analysed via analytical ultracentrifugation using a Beckman Optima XL-1 instrument.
These domains were then purified using protein A to remove Fc domains, anti-his to remove enzymes and finally subjected to SEC to purify the monomeric fraction.

For data set [15], the target named is T7, Biotinylated hPD-L1-Fc-Avi. In words: cell-based RBA, blocking of hPD-L1-Fc-Avi binding to HEK293 hCD80 cells. The protocol:
as §2

T5 sequence (Q9NZQ7 19-290 limits assumed): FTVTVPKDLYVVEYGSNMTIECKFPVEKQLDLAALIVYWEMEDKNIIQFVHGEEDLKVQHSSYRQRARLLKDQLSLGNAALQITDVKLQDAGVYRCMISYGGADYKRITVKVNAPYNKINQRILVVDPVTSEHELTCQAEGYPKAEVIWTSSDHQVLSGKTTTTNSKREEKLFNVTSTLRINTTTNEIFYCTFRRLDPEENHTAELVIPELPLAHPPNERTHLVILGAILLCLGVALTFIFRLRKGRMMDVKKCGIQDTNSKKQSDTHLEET
T9 sequence (Q15116 25-167 limits assumed): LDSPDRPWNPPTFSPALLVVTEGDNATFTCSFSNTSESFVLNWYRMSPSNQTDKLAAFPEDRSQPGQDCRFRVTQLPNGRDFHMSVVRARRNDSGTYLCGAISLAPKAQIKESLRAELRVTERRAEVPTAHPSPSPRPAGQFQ
T6 sequence (Q9NZQ7 other isoform, or with tags, fused parts or gaps limits assumed): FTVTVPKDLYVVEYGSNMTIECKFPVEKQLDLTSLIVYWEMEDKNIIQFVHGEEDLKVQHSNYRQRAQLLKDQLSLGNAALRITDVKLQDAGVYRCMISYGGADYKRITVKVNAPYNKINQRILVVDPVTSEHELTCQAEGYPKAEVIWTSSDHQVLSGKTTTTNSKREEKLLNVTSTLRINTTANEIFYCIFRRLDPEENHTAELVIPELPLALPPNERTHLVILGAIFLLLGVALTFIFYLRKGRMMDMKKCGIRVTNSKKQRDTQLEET

B1: Fcab FS17-33 (Example 1, soluble Fcab with truncated hinge) (designed binder)
chain: TCPPCPAPELLGGPSVFLFPPKPKDTLMISRTPEVTCVVVDVSHEDPEVKFNWYVDGVEVHNAKTKPREEQYNSTYRVVSVLTVLHQDWLNGKEYKCKVSNKALPAPIEKTISKAKGQPREPQVYTLPPSRDEQSGYWVSLTCLVKGFYPSDIAVEWESNGQPENNYKTTPPVLDSDGSFFLYSKLTVSNWRWQMGDFSCSVMHEALHNHYTQKSLSLSPGK
As for B1, the binding result in data set [1] is on record as “no binding (tested: 1 µM)”; in data set [2], “no binding (tested: 1 µM)”; in [3] it was “no binding (tested: 1 µM)”; in [4], “no binding (tested: 1 µM)”; in data set [5], “no binding”.

B2: Fcab FS17-33-116 (designed binder)
chain: TCPPCPAPELLGGPSVFLFPPKPKDTLMISRTPEVTCVVVDVSHEDPEVKFNWYVDGVEVHNAKTKPREEQYNSTYRVVSVLTVLHQDWLNGKEYKCKVSNKALPAPIEKTISKAKGQPREPQVYTLPPSRDESGYWVSLTCLVKGFYPSDIVVEWESNGEPQYWAKTTPPVLDSDGSFFLYSKLTVSNWRWQMDDFSCSVMHEALHNHYTQKSLSLSPGK
As for B2, the Kd (as a rule, a measure of binding affinity in units of concentration) in data set [6] is 1.68 nM; in data set [7] it was 0.665 nM; in data set [11], 0.49 nM; in [12], 0.42 nM; in [13], 0.33 nM; in [14] it was approximately 2000 nM. The EC50 (in general, the concentration at which the effect is half-maximal) was 9.5 nM in [8] and 8.4 nM in [15]. Also, the binding result in data set [9] and in data set [10] was “no binding” throughout. Also, the koff (as a rule, the rate constant with which the complex falls apart) in data set [11] was 0.00044 s⁻¹. In data set [11], the kon – broadly, the second-order rate constant of association – is 1.5e+06 M⁻¹ s⁻¹.
